According to patent publication US20150025225A1 (SHIONOGI, published 2015):
Read-outs that look alike come from different tables or passages of the source.

T1: Baboon EL-C2 tag (baboon, UniProt Q9Y5X9 21-500 (human entry), limits assumed)
T1 construct: used as heparin extract of transfected HEK293F cells; also called baboon EL heparin extract
T1 chain: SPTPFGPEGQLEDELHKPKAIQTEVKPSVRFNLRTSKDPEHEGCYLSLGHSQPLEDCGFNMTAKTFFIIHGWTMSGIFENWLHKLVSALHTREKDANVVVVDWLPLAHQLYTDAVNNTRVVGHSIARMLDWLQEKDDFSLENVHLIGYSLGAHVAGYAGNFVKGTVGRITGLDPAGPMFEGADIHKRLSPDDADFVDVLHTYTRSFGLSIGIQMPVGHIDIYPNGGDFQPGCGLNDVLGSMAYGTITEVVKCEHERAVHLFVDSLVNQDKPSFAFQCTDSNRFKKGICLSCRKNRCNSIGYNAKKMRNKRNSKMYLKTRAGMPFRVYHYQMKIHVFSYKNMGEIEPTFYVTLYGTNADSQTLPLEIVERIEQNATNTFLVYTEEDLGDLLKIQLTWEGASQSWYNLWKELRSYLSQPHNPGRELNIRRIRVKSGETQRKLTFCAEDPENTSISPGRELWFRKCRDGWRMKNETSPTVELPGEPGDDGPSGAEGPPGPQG

T2: mouse EL-C2 tag (mouse, UniProt Q9WVG5 21-500)
T2 construct: used as heparin extract of transfected HEK293F cells
T2 sequence: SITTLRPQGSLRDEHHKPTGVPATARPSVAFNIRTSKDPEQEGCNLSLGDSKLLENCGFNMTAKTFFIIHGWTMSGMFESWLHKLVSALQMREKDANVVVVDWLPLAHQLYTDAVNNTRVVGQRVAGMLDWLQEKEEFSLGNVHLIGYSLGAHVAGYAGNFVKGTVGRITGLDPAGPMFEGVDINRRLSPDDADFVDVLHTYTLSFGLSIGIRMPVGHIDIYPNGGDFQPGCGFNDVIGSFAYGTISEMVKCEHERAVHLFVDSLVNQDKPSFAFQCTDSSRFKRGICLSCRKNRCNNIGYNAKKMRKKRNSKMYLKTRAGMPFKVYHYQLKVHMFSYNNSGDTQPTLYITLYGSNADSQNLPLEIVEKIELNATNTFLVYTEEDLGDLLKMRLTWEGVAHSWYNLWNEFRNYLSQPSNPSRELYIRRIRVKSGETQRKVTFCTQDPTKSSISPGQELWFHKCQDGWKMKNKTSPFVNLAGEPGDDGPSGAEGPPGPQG

T3: human EL[331-459]-mouse EL-C2 tag (human/mouse chimera, UniProt Q9WVG5 21-500 (mouse entry))
T3 construct: used as heparin extract of transfected HEK293F cells; also called human-mouse chimera EL; Human-Mouse chimeric EL
T3 chain: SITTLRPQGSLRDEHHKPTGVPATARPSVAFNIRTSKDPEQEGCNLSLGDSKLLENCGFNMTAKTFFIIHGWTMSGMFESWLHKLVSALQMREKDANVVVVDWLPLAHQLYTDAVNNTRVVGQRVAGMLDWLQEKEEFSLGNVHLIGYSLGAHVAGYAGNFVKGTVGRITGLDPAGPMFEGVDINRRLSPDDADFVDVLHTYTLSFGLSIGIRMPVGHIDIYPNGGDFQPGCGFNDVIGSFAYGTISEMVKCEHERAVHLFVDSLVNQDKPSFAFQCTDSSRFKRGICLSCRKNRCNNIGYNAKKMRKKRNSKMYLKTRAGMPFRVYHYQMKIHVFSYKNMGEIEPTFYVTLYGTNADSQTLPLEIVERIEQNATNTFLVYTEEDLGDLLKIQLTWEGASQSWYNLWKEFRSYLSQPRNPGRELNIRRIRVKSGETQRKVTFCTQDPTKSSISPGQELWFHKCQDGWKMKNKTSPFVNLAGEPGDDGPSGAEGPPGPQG

T4: cynomolgus monkey EL-C2 tag (cynomolgus monkey, UniProt Q9Y5X9 21-500 (human entry), limits assumed)
T4 construct: used as heparin extract of transfected HEK293F cells; also called cynomolgus EL
T4 chain: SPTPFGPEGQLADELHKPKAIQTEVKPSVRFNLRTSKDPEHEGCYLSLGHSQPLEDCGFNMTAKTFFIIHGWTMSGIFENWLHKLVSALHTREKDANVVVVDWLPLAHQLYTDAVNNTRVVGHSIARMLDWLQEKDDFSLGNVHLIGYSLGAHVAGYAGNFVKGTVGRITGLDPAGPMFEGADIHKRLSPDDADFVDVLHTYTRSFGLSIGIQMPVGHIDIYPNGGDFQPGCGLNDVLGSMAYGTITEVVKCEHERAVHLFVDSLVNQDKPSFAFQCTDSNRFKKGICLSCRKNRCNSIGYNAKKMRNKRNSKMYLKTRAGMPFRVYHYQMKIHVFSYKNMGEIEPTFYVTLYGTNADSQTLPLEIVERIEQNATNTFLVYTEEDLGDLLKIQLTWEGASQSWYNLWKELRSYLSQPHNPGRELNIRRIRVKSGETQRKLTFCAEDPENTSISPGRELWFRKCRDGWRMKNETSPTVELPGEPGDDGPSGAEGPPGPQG


Tests used:
Assay in all cases: ELISA-type titration, A450 against antibody concentration; protocol not described in the text
Baboon EL-C2 tag [1] = molecular target: T1, Baboon EL-C2 tag
mouse EL-C2 tag [2] = molecular target: T2, mouse EL-C2 tag
[3] = molecular target: T3, human EL[331-459]-mouse EL-C2 tag
Baboon EL-C2 tag [4] = molecular target: T1, Baboon EL-C2 tag
mouse EL-C2 tag [5] = molecular target: T2, mouse EL-C2 tag; remark: listed apart in the source
[6] = molecular target: T4, cynomolgus monkey EL-C2 tag

Binder	EC50 (read off the curve) (Baboon EL-C2 tag [1]) [µg/mL]	binding result (mouse EL-C2 tag [2])	EC50 (read off the curve) [3] [µg/mL]	EC50 (read off the curve) (Baboon EL-C2 tag [4]) [µg/mL]	binding result (mouse EL-C2 tag [5])	EC50 (read off the curve) [6] [µg/mL]
12B10 antibody (antibody, IgG2a, V domains shown) VH: QVTLKESGPGILKPSQTLSLTCSFSGFSLSTSGMGVGWIRQPSGKGLEWLAHIWWNDEKYYNPSLKSQLTISKDTSRNQVFLKITSVDTADTATYYCARSYDGSPFPSWGQGTLVTVSA VL: DIQMTQSPSSLSASLGGKVTITCKASQDINKYIAWFQHKPGKGPRLLMAYPFTLQPGIPSRFSGNGSGRDYSFSISNLEPEDIATYYCLQYDNLLWTFGGGTRLEIK	~0.02	no binding	~0.04	–	–	–
47B2 antibody (antibody, IgG2a, V domains shown) VH: QVALKESGPGILQPSQTLSLTCSFSGFSLSTSGMGVGWIRQPSGKGLEWLAHIWWHGNKYYSTGLKSRLTISKDTSNNQVFLKIASVDTADTATYYCARISAGYPLDYWGQGTSVTVSS VL: DIQMTQSPSSLSASLGGKVTITCKASQDINKYIVWYQHKPGKGPRLLIHYTSTLQPGFPSRFSGSGSGRDYSLSITNLEPEDIATYYCLQYDNLLWTFGGGTKLEIK	–	–	–	~0.01	binds	~0.006
